Laboratory results published in patent publication US20120316071A1 (published 2012).
One block for each binder: values may come before it.

Key:
[1] = target: T1, rHuman IGF-1 sR, CF (R&D Systems Cat#391-GR) (human, UniProt P08069 31-932); assay: ECL multispot (MSD) binding assay, antigen spotted on plate, Fab 0.04 uM;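 note: purified Fab incubated 1 h at 20 °C on antigen spots, detected via TAG-labelled antibody, ECL read against each well's blank, with signal-to-blank of at least 4 scored as binder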
T1 construct: Bought recombinant soluble receptor; also called insulin-like growth factor-1 soluble receptor

[2] = target: T2, rHuman HGF R/c-MET/Fc Chimera, CF (R&D Systems Cat#358-MT/CF) (human, UniProt P08581 25-932); assay: as above
T2 construct: Bought recombinant protein; also called HGF R/Fc; hepatocyte growth factor receptor; Fc part of the bought chimera not given

[3] = target: T3, rHuman EGF R/Fc Chimera, CF (R&D Systems Cat#344-ER) (human, UniProt P00533 25-645); assay: as above
T3 construct: Bought recombinant protein; also called epidermal growth factor receptor; Fc part of the bought chimera not given

[4] = target: T4, rHuman P-Cadherin/Fc Chimera, CF (R&D Systems Cat#861-PC) (human, UniProt P22223 108-654); assay: as above
T4 construct: Bought recombinant protein; Fc part of the bought chimera not given

[5] = target: T5, rHuman CD44/Fc Chimera, CF (R&D Systems Cat#3660-CD) (human, UniProt P16070 21-220); assay: as above
T5 construct: Bought recombinant protein; Fc part of the bought chimera not given

[6] = target: T6, Recombinant Human DLL4 (R&D Systems Cat#1506-D4/CF) (human, UniProt Q9NR61 27-524); assay: as above
T6 construct: Bought recombinant protein; also called delta-like protein 4; rHuman DLL4

[7] = target: T7, rHuman Notch-1/Fc Chimera, CF (R&D Systems Cat#3647-TK) (human, UniProt P46531 19-526); assay: as above
T7 construct: Bought recombinant protein; Fc part of the bought chimera not given

[8] = target: T8, rHuman Erythropoietin R/Fc Chimera, CF (R&D Systems Cat#963-ER) (human, UniProt P19235 25-250); assay: as above
T8 construct: Bought recombinant protein; also called EPO R; EPO R/Fc; Fc part of the bought chimera not given
T8 sequence (looked up): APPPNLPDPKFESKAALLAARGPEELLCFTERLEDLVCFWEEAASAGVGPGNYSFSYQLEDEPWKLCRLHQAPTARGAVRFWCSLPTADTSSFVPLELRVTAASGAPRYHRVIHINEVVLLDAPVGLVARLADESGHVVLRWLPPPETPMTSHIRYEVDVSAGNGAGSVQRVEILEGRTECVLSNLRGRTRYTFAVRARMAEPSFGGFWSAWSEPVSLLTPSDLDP

[9] = target: T9, rHuman ErbB2/Fc Chimera, CF (R&D Systems Cat#1129-ER) (human, UniProt P04626 23-652); assay: as above
T9 construct: Bought recombinant protein; also called human epidermal growth factor 2 receptor; Fc part of the bought chimera not given

[10] = target: T10, Recombinant Human DLL4 (delta-like protein 4) (human, UniProt Q9NR61 27-524); assay: SPR, Fab on recombinant human DLL4; (±8.5) at r15c5
T10 construct: Bought recombinant protein; also called rHuman DLL4; Delta-like 4

[11] = target: T10, Recombinant Human DLL4 (delta-like …); assay: SPR, Fab on recombinant human DLL4; column head x10^5 applied; (±6.24) at r15c3
[12] = target: T10, Recombinant Human DLL4 (delta-like …); assay: SPR, Fab on recombinant human DLL4; column head x10^-3 applied as printed, but KD x ka implies 0.0717 s^-1 unscaled; (±0.00351) at r15c4
[13] = target: T10, Recombinant Human DLL4 (delta-like …); assay: SPR, Fab on recombinant human DLL4; (±200) printed at r9c5; ka and kd printed n/a
[14] = target: T11, Recombinant Human DLL4 (delta-like protein 4) (human, UniProt Q9NR61 27-524); assay: ELISA, Fab on plate-coated recombinant human DLL4
T11 construct: also called rHuman DLL4; Delta-like 4

[15] = target: T11, Recombinant Human DLL4 (delta-like …); assay: ECL (MSD) binding assay, Fab on immobilised recombinant human DLL4
[16] = target: T10, Recombinant Human DLL4 (delta-like …); assay: SPR, Fab on recombinant human DLL4; column head x10^5 applied; (±0.6) at r13c3
[17] = target: T10, Recombinant Human DLL4 (delta-like …); assay: SPR, Fab on recombinant human DLL4; column head x10^-3 applied as printed, but KD x ka implies 0.0845 s^-1 unscaled; (±0.0050) at r13c4
[18] = target: T10, Recombinant Human DLL4 (delta-like …); assay: SPR, Fab on recombinant human DLL4; (±6) at r13c5
[19] = target: T10, Recombinant Human DLL4 (delta-like …); assay: SPR, Fab on recombinant human DLL4; column head x10^-3 applied as printed, but KD x ka implies 0.023 s^-1 unscaled; (±0.004) at r11c4
[20] = target: T10, Recombinant Human DLL4 (delta-like …); assay: SPR, Fab on recombinant human DLL4; column head x10^5 applied; (±0.092) at r11c3
[21] = target: T10, Recombinant Human DLL4 (delta-like …); assay: SPR, Fab on recombinant human DLL4; (±7) at r11c5
[22] = target: T10, Recombinant Human DLL4 (delta-like …); assay: SPR, Fab on recombinant human DLL4; column head x10^-3 applied as printed, but KD x ka implies 0.101 s^-1 unscaled; (±0.0153) at r18c4
[23] = target: T10, Recombinant Human DLL4 (delta-like …); assay: SPR, Fab on recombinant human DLL4; column head x10^5 applied; (±4.16) at r18c3
[24] = target: T10, Recombinant Human DLL4 (delta-like …); assay: SPR, Fab on recombinant human DLL4; (±9.3) at r18c5
[25] = target: T12, Recombinant Human DLL4 (R&D Systems Cat#1506-D4/CF) (human, UniProt Q9NR61 27-524); assay: ECL (MSD) binding assay, DLL4 coated on plate, Fab 0.04 uM
T12 construct: Bought recombinant human DLL4 coated on the ECL plate; also called delta-like protein 4; Delta-like 4

T2 sequence (P08581 25-932, change not shown): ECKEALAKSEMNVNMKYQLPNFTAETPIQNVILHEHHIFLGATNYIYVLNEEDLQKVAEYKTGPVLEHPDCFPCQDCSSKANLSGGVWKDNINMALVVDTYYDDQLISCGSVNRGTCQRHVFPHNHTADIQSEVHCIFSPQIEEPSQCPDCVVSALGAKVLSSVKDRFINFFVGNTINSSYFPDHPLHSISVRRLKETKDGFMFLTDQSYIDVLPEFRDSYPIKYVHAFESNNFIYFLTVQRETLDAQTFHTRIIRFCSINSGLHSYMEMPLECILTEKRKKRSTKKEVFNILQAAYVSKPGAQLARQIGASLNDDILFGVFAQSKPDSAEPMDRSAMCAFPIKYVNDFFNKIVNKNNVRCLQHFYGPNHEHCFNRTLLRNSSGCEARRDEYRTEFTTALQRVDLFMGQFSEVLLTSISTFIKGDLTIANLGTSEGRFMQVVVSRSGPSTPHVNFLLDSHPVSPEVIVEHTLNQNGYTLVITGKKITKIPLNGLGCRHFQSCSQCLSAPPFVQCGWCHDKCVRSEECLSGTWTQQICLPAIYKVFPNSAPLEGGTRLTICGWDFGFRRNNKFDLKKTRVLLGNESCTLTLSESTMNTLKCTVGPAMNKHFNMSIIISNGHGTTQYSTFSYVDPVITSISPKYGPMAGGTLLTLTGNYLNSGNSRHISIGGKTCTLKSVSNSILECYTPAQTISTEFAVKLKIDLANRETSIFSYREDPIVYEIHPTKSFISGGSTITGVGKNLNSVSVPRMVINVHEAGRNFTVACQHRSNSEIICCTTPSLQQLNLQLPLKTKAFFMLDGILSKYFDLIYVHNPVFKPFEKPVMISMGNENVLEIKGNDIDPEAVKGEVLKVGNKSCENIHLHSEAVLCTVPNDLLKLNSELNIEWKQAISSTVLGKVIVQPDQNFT

- ECL signal [1]: 1100
- ECL signal [2]: 1230
- ECL signal [3]: 1050
- ECL signal [4]: 359
- ECL signal [5]: 708
- ECL signal [6]: 15100
- ECL signal [7]: 700
- ECL signal [8]: 584
- ECL signal [9]: 1380
B1: Fab VH5-51_IGHD5-18*01>3_IGHJ4*01 G100K/G104T (H:KT) & V3-4_IGLJ1*01 I98A (Fab, V domains shown)
VH: EVQLVQSGAEVKKPGESLKISCKGSGYSFTSYWIGWVRQMPGKGLEWMGIIYPGDSDTRYSPSFQGQVTISADKSISTAYLQWSSLKASDTAMYYCARRKYSYTYDYFDYWGQGTLVTVSS
VL: QTVVTQEPSFSVSPGGTVTLTCGLSSGSVSTSYYPSWYQQTPGQAPRTLIYSTNTRSSGVPDRFSGSILGNKAALTITGAQADDESDYYCVLYMGSGASYVFGTGTKVTVL
notes: Fab; Expressed from Plasmid A (CH1, His6 and Flag tags) and Plasmid E (lambda CL); also called KT & I98A

- ELISA signal [14]: 0.11
- ECL signal [15]: 68200
B4: Fab VH5-51_IGHD5-18*01>3_IGHJ4*01 G100K/G104T (H:KT) & V3-4_IGLJ1*01 G23R (Fab, V domains shown)
VH: EVQLVQSGAEVKKPGESLKISCKGSGYSFTSYWIGWVRQMPGKGLEWMGIIYPGDSDTRYSPSFQGQVTISADKSISTAYLQWSSLKASDTAMYYCARRKYSYTYDYFDYWGQGTLVTVSS
VL: QTVVTQEPSFSVSPGGTVTLTCRLSSGSVSTSYYPSWYQQTPGQAPRTLIYSTNTRSSGVPDRFSGSILGNKAALTITGAQADDESDYYCVLYMGSGISYVFGTGTKVTVL
notes: Fab (CH1 with His6/Flag tags from Plasmid A, lambda CL from Plasmid E); also called G100K/G104T & G23R

- kon [16]: 740000 M⁻¹ s⁻¹
- koff [17]: 8.45e-05 s⁻¹
- Kd [18]: 0.114 µM
B5: Fab VH5-51_IGHD5-18*01>3_IGHJ4*01 G100K/G104T S28R & V3-4_IGLJ1*01 (Fab, V domains shown)
VH: EVQLVQSGAEVKKPGESLKISCKGSGYRFTSYWIGWVRQMPGKGLEWMGIIYPGDSDTRYSPSFQGQVTISADKSISTAYLQWSSLKASDTAMYYCARRKYSYTYDYFDYWGQGTLVTVSS
VL: QTVVTQEPSFSVSPGGTVTLTCGLSSGSVSTSYYPSWYQQTPGQAPRTLIYSTNTRSSGVPDRFSGSILGNKAALTITGAQADDESDYYCVLYMGSGISYVFGTGTKVTVL
notes: Fab made in E. coli; VH was cloned in Plasmid A (CH1, His6 and Flag tags) and VL in Plasmid E (lambda CL); also called KT S28R; H:KT S28R & L:wt

- koff [22]: 0.000101 s⁻¹
- kon [23]: 2.53e+06 M⁻¹ s⁻¹
- Kd [24]: 0.0403 µM
B7: Fab VH5-51_IGHD5-18*01>3_IGHJ4*01 G100K/G104T G24T/S28R/G35V & V3-4_IGLJ1*01 M94R/S96M (Fab, V domains shown)
VH: EVQLVQSGAEVKKPGESLKISCKTSGYRFTSYWIVWVRQMPGKGLEWMGIIYPGDSDTRYSPSFQGQVTISADKSISTAYLQWSSLKASDTAMYYCARRKYSYTYDYFDYWGQGTLVTVSS
VL: QTVVTQEPSFSVSPGGTVTLTCGLSSGSVSTSYYPSWYQQTPGQAPRTLIYSTNTRSSGVPDRFSGSILGNKAALTITGAQADDESDYYCVLYRGMGISYVFGTGTKVTVL
notes: Fab made in E. coli; VH was cloned in Plasmid A (CH1, His6 and Flag tags) and VL in Plasmid E (lambda CL); also called H:KT TRV & L:RM

The remaining lines, values behind:

B2: Fab VH5-51_IGHD5-18*01>3_IGHJ4*01 G100K/G104T G24T/S28R/G35V & V3-4_IGLJ1*01 (Fab, V domains shown)
VH: EVQLVQSGAEVKKPGESLKISCKTSGYRFTSYWIVWVRQMPGKGLEWMGIIYPGDSDTRYSPSFQGQVTISADKSISTAYLQWSSLKASDTAMYYCARRKYSYTYDYFDYWGQGTLVTVSS
VL: QTVVTQEPSFSVSPGGTVTLTCGLSSGSVSTSYYPSWYQQTPGQAPRTLIYSTNTRSSGVPDRFSGSILGNKAALTITGAQADDESDYYCVLYMGSGISYVFGTGTKVTVL
notes: Fab made in E. coli; VH was cloned in Plasmid A (CH1, His6 and Flag tags) and VL in Plasmid E (lambda CL); also called KT TRV; H:KT TRV & L:wt
- Kd [10]: 0.0362 µM
- kon [11]: 2.09e+06 M⁻¹ s⁻¹
- koff [12]: 7.17e-05 s⁻¹

B3: Fab VH5-51_IGHD5-18*01>3_IGHJ4*01 & V3-4_IGLJ1*01 (Fab, V domains shown)
VH: EVQLVQSGAEVKKPGESLKISCKGSGYSFTSYWIGWVRQMPGKGLEWMGIIYPGDSDTRYSPSFQGQVTISADKSISTAYLQWSSLKASDTAMYYCARRGYSYGYDYFDYWGQGTLVTVSS
VL: QTVVTQEPSFSVSPGGTVTLTCGLSSGSVSTSYYPSWYQQTPGQAPRTLIYSTNTRSSGVPDRFSGSILGNKAALTITGAQADDESDYYCVLYMGSGISYVFGTGTKVTVL
notes: Germline Fab made in E. coli; also called parental; wildtype
- Kd [13]: 4.8 µM

B6: Fab VH5-51_IGHD5-18*01>3_IGHJ4*01 G100K/G104T & V3-4_IGLJ1*01 (Fab, V domains shown)
VH: EVQLVQSGAEVKKPGESLKISCKGSGYSFTSYWIGWVRQMPGKGLEWMGIIYPGDSDTRYSPSFQGQVTISADKSISTAYLQWSSLKASDTAMYYCARRKYSYTYDYFDYWGQGTLVTVSS
VL: QTVVTQEPSFSVSPGGTVTLTCGLSSGSVSTSYYPSWYQQTPGQAPRTLIYSTNTRSSGVPDRFSGSILGNKAALTITGAQADDESDYYCVLYMGSGISYVFGTGTKVTVL
notes: Fab made in E. coli; VH was cloned in Plasmid A (CH1, His6 and Flag tags) and VL in Plasmid E (lambda CL); also called KT; H:KT & L:wt
- koff [19]: 2.3e-05 s⁻¹
- kon [20]: 64500 M⁻¹ s⁻¹
- Kd [21]: 0.355 µM

B8: Fab VH5-51_IGHD5-18*01>3_IGHJ3*01 & V3-4_IGLJ1*01 (Fab, V domains shown)
VH: EVQLVQSGAEVKKPGESLKISCKGSGYSFTSYWIGWVRQMPGKGLEWMGIIYPGDSDTRYSPSFQGQVTISADKSISTAYLQWSSLKASDTAMYYCARRGYSYGYDAFDVWGQGTLVTVSS
VL: QTVVTQEPSFSVSPGGTVTLTCGLSSGSVSTSYYPSWYQQTPGQAPRTLIYSTNTRSSGVPDRFSGSILGNKAALTITGAQADDESDYYCVLYMGSGISYVFGTGTKVTVL
notes: Fab; the JH germline segment IGHJ4*01 of the parent is swapped for IGHJ3*01; Constant parts come from Plasmid A (CH1, His6, Flag) and Plasmid E (lambda CL); also called J-swap mutant IGHJ3*01
- Signal/Noise [25]: 3.1
